{"source": "patent US20230183336A1", "about": "(MODMAB THERAPEUTICS, published 2023)", "target": "T1, recombinant mouse LRP5-His chimera (mouse, UniProt Q91VN0 31-1383)", "T1 construct": "extracellular domain; also called ECD of mouse LRP5; not shown: His tag", "T1 sequence (looked up)": "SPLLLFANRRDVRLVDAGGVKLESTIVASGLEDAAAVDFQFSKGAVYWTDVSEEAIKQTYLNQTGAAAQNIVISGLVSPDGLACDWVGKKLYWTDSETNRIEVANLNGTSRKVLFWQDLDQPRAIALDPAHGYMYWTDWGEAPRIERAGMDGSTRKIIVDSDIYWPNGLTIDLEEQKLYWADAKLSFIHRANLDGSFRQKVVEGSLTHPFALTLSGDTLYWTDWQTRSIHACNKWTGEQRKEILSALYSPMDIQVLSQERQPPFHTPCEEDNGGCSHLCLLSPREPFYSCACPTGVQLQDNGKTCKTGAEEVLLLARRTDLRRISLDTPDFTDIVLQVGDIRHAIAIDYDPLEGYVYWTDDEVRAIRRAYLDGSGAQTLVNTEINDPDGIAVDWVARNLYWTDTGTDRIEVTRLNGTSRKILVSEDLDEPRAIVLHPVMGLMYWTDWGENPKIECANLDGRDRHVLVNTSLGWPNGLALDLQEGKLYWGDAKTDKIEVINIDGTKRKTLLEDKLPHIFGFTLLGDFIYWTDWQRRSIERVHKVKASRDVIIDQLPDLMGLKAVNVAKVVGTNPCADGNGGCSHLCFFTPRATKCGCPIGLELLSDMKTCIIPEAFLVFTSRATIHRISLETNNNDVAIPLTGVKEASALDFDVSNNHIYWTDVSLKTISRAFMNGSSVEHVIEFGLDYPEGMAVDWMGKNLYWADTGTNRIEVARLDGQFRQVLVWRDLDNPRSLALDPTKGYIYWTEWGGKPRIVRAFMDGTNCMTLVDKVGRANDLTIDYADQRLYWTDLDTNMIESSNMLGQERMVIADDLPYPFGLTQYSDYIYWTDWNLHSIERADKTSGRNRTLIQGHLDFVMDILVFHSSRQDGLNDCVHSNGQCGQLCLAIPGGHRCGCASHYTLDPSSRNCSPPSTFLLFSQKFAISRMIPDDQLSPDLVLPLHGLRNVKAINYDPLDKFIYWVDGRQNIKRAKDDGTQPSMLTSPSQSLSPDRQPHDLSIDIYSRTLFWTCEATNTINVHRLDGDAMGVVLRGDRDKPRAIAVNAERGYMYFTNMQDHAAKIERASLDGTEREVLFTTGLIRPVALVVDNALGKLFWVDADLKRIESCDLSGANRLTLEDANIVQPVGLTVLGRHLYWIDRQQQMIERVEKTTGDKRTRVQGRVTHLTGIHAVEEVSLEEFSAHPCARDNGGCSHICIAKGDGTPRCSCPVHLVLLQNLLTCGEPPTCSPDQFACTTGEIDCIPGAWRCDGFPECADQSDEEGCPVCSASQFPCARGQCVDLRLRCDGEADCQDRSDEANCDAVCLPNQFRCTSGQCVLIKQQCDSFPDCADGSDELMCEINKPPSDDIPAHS", "assay": "single-point ELISA, coated antigen, purified Fab or IgG1, anti-kappa-HRP", "procedure": "FIGS. 1A and 1B show sixteen (16) anti-LRP antibodies. (A) The amino acid sequences of the complementarity determining regions (CDR) of the heavy (H) and the light (L) chains are presented. The antibodies were grouped into unique epitopes as determined by competitive ELISAs. (B) Single-point ELISAs were performed on 96-well Maxisorb immune plates coated with ECD's of mouse LRP5, mouse LRP6 and human LRP6 chimeras. The plates were incubated with the purified Fab or IgG1 at the concentrations indicated followed by incubation with horseradish peroxidase (HRP)-conjugated anti-kappa antibody. The wells were washed eight times followed by incubation with 3,3′,5,5′-tetramethylbenzidine/H₂O₂ peroxidase (TMB) substrate for 5-10 min. The reaction was stopped by adding 1M H₃PO₄ and the absorbance was measured spectrometrically at 450 nm in a microtiter plate reader. FIG. 1A discloses “SSVA” as SEQ ID NO: 34, and “SASSLYS” as SEQ ID NO: 35, as well as SEQ ID NOS 36-49, 51, 44, 2-4, 4, 5-7, 5, 4, 5, 8-10, 4, 52, 55, 11-16, 15, 15, 13, 17-20, 13, 53, 56, 21-23, 22, 24-33, 54, 57, respectively, in order of columns.\nThe full length IgG1s and the antibody fragments (Fabs) were purified and a single-point ELISA was done to determine the specificity of the antibodies. […] A multipoint competitive ELISA was used to determine the relative affinities of the antibodies to the recombinant antigen."}
{"binder": "LRP5-H5 (antibody, V domains shown, Fab-phage in the screen) VH: EVQLVESGGGLVQPGGSLRLSCAASGFNLSYSSIHWVRQAPGKGLEWVASISSSYGSTSYADSVKGRFTISADTSKNTAYLQMNSLRAEDTAVYYCARGYWAIDYWGQGTLVTVSS VL: DIQMTQSPSSLSASVGDRVTITCRASQSVSSAVAWYQQKPGKAPKLLIYSASSLYSGVPSRFSGSRSGTDFTLTISSLQPEDFATYYCQQPVGHYGYPITFGQGTKVEIKR", "values": [{"measurement": "binding result", "result": "binds"}]}
